Measured values reported in patent US8822165B2, “Method for producing cAMP using chimeric olfactory receptor” (Panasonic Corporation, priority 2010, dated 2014).

B1: Rho-myc-Olfr168: Rho-tag, myc epitope tag and EC1-IC4 domains of the Olfr168, mouse olfactory receptor for 2-pentanone (protein)
chain: MNGTEGPNFYVPFSNKTGVVEQKLISEEDLEFMEKWNQSSSDFILLGLLPQNQTGLLLMMLIILVFFLALFGNSAMIHLIRVDPRLHTPMYFLLSQLSLMDLMYISTTVPKMAFNFLSGQKNISFLGCGVQSFFFLTMAGSEGLLLASMAYDRFVAICHPLHYPIRMSKIMCLKMIIGSWILGSINSLAHSIYALHIPYCHSRSINHFFCDVPAMLPLACMDTWVYEYMVFVSTSLFLLLPFLGITASYGRVLFAVFHMRSKEGKKKAFTTCSTHLTVVTFYYAPFVYTYLRPRSLRSPTEDKILTVFYTILTPMLNPIIYSLRNKEVLGAMTRVLGTFSSMKP
modifications: Rho-myc-olfr168
B2: chimeraOlfr15: IC4 domain of the Rho-myc-Olfr15 substituted with that of the beta-1 adrenergic receptor (protein)
chain: MNGTEGPNFYVPFSNKTGVVEQKLISEEDLEFMEVDSNSSSGSFILMGVSDHPHLEIIFFAVILASYLLTLVGNLTIILLSRLDARLHTPMYFFLSNLSSLDLAFTTSSVPQMLKNLWGPDKTISYGGCVTQLYVFLWLGATECILLVVMAFDRYVAVCRPLHYMTVMNPRLCWGLAAISWLGGLGNSVIQSTFTLQLPFCGHRKVDNFLCEVPAMIKLACGDTSLNEAVLNGVCTFFTVVPVSVILVSYCFIAQAVMKIRSVEGRRKAFNTCVSHLVVVFLFYGSAIYGYLLPAKSSNQSQGKFISLFYSVVTPMVNPLIYTLRNKDFRKAFQRLLCCARRAACRRRAAHGDRPRASGCLARAGPPPSPGAPSDDDDDDAGATPPARLLEPWAGCNGGTTTVDSDSSLDEPGRQGFSSESKV
modifications: ChimeraOlfr15
notes: IC4 domain of the Rho-myc-Olfr15 substituted with that of the beta-1 adrenergic receptor
B3: chimeraOlfr609: IC4 domain of the Rho-myc-Olfr609 substituted with that of the beta-1 adrenergic receptor (protein)
chain: MNGTEGPNFYVPFSNKTGVVEQKLISEEDLEFMSYSNHSSTSFFLTGLPGLETVYLWLSIPLCTMYIASLAGNGLILWVVKSEPSLHQPMYYFLSMLAVTDLGLSVSTLPTMLTIYMMGVSEVALDMCLAQLFFIHTFSIMESSVLLTMAFDRVVAISSPLHYATILTNPRVASLGMVILVRSIGLHIPAPIMLKKLPYCQKRHLSHSYCLHPDVMKLACTDTRINSAYGLFVVLSTLGVDSVLIVLSYGLILYTVLSIASKTERLKALNTCVSHICSVLLFYTPMIGLSMIHRFGKWASPCSRVLLSYLHFLTPPVLNPVVYTIKTKDFRKAFQRLLCCARRAACRRRAAHGDRPRASGCLARAGPPPSPGAPSDDDDDDAGATPPARLLEPWAGCNGGTTTVDSDSSLDEPGRQGFSSESKV
modifications: ChimeraOlfr 609
notes: IC4 domain of the Rho-myc-Olfr609 substituted with that of the beta-1 adrenergic receptor
B4: chimeraOlfr168: Rho-myc-Olfr168 where the IC4 domain was substituted with that of the beta-1 adrenergic receptor (protein)
chain: MNGTEGPNFYVPFSNKTGVVEQKLISEEDLEFMEKWNQSSSDFILLGLLPQNQTGLLLMMLIILVFFLALFGNSAMIHLIRVDPRLHTPMYFLLSQLSLMDLMYISTTVPKMAFNFLSGQKNISFLGCGVQSFFFLTMAGSEGLLLASMAYDRFVAICHPLHYPIRMSKIMCLKMIIGSWILGSINSLAHSIYALHIPYCHSRSINHFFCDVPAMLPLACMDTWVYEYMVFVSTSLFLLLPFLGITASYGRVLFAVFHMRSKEGKKKAFTTCSTHLTVVTFYYAPFVYTYLRPRSLRSPTEDKILTVFYTILTPMLNPIIYSLRNKDFRKAFQRLLCCARRAACRRRAAHGDRPRASGCLARAGPPPSPGAPSDDDDDDAGATPPARLLEPWAGCNGGTTTVDSDSSLDEPGRQGFSSESKV
modifications: ChimeraOlfr168
notes: Rho-myc-Olfr168 where the IC4 domain was substituted with that of the beta-1 adrenergic receptor
B5: Rho-myc-Olfr609: Rho-tag, myc epitope tag and EC1-IC4 domains of the Olfr609, mouse olfactory receptor for vanillic acid (protein)
chain: MNGTEGPNFYVPFSNKTGVVEQKLISEEDLEFMSYSNHSSTSFFLTGLPGLETVYLWLSIPLCTMYIASLAGNGLILWVVKSEPSLHQPMYYFLSMLAVTDLGLSVSTLPTMLTIYMMGVSEVALDMCLAQLFFIHTFSIMESSVLLTMAFDRVVAISSPLHYATILTNPRVASLGMVILVRSIGLHIPAPIMLKKLPYCQKRHLSHSYCLHPDVMKLACTDTRINSAYGLFVVLSTLGVDSVLIVLSYGLILYTVLSIASKTERLKALNTCVSHICSVLLFYTPMIGLSMIHRFGKWASPCSRVLLSYLHFLTPPVLNPVVYTIKTKQIRQRIWRIFRCGGRSIGHIQGH
modifications: Rho-myc-olfr609
B6: Rho-myc-Olfr15: Rho-tag, myc epitope tag and EC1-IC4 domains of the Olfr15, mouse olfactory receptor for cyclohexanone (protein)
chain: MNGTEGPNFYVPFSNKTGVVEQKLISEEDLEFMEVDSNSSSGSFILMGVSDHPHLEIIFFAVILASYLLTLVGNLTIILLSRLDARLHTPMYFFLSNLSSLDLAFTTSSVPQMLKNLWGPDKTISYGGCVTQLYVFLWLGATECILLVVMAFDRYVAVCRPLHYMTVMNPRLCWGLAAISWLGGLGNSVIQSTFTLQLPFCGHRKVDNFLCEVPAMIKLACGDTSLNEAVLNGVCTFFTVVPVSVILVSYCFIAQAVMKIRSVEGRRKAFNTCVSHLVVVFLFYGSAIYGYLLPAKSSNQSQGKFISLFYSVVTPMVNPLIYTLRNKEVKGALGRLLGKGRGAS
modifications: Rho-myc-Olfr15

Tests used:
Type in all cases: cell-based
[1] = tested on: HEK293T cells; assay: cAMP production by Olfr168-derived receptors expressed in HEK293T cells, 2-pentanone as agonist (Experiment 2)
Method: (§1) Subsequently, the HEK293T cells were transfected with the above-mentioned three plasmids by a lipofection method. The HEK293T cells were incubated for 48 hours, and the β1AR consisting of the protein represented by SEQ ID NO: 03 was expressed on the cell membrane of the HEK293T cell.
(§2) The abbreviation “IBMX” means 3-isobutyl-1-methylxanthine. The IBMX is one of the phosphodiesterase inhibitors. The IBMX stabilizes cAMP, which is unstable.
The expression was conducted similarly to that of the step 2 of the reference example 1 except that the plasmid (Rho-myc-Olfr168) was used instead of the plasmid (β1AR). In this way, the Rho-myc-Olfr168 (SEQ ID NO: 49) was expressed on a cell membrane.
The concentrations of the cAMP were measured similarly to the step 3 of the comparative example 1-1 except that 2-pentanone aqueous solutions having concentrations of 30 μM, 100 μM, 300 μM, 1000 μM, and 3000 μM were used as agonists instead of the eugenol aqueous solutions.
The expression was conducted similarly to that of the step 2 of the reference example 1 except that the plasmid (chimeraOlfr168) was used instead of the plasmid (β1AR). In this way, the chimeraOlfr168 (SEQ ID NO: 51) was expressed on a cell membrane.
The concentrations of the cAMP were measured similarly to the step 3 of the comparative example 2-1.

[2] = tested on: HEK293T cells; assay: cAMP production by Olfr15-derived receptors expressed in HEK293T cells, cyclohexanone as agonist (Experiment 3)
Method: as §1, §2
The expression was conducted similarly to that of the step 2 of the reference example 1 except that the plasmid (Rho-myc-Olfr15) was used instead of the plasmid (β1AR). In this way, the Rho-myc-Olfr15 (SEQ ID NO: 58) was expressed on a cell membrane.
Instead of the eugenol aqueous solutions, the concentrations of the cAMP were measured similarly to the step 3 of the comparative example 1-1 except that cyclohexanone aqueous solutions having concentrations of 30 μM, 100 μM, 300 μM, 1000 μM, and 3000 μM were used as agonists.
The expression was conducted similarly to that of the step 2 of the reference example 1 except that the plasmid (chimeraOlfr15) was used instead of the plasmid (β1AR). In this way, the chimeraOlfr15 (SEQ ID NO: 60) was expressed on a cell membrane.
The concentrations of the cAMP were measured similarly to the step 3 of the comparative example 3-1.

[3] = tested on: HEK293T cells; assay: cAMP production by Olfr609-derived receptors expressed in HEK293T cells, vanillic acid as agonist (Experiment 4)
Method: as §1, §2
The expression was conducted similarly to that of the step 2 of the reference example 1 except that the plasmid (Rho-myc-Olfr609) was used instead of the plasmid (β1AR). In this way, the Rho-myc-Olfr609 (SEQ ID NO: 64) was expressed on a cell membrane.
Instead of the eugenol aqueous solutions, the concentrations of the cAMP were measured similarly to the step 3 of the comparative example 1-1 except that vanillic acid aqueous solutions having concentrations of 0.30 μM, 1 μM, 3 μM, 10 μM, and 30 μM were used as agonists.
The expression was conducted similarly to that of the step 2 of the reference example 1 except that the plasmid (chimeraOlfr609) was used instead of the plasmid (β1AR). In this way, the chimeraOlfr609 (SEQ ID NO: 69) was expressed on a cell membrane.
The concentrations of the cAMP were measured similarly to the step 3 of the comparative example 4-1.

Molecule | concentration of the cAMP ([1]; 2-pentanone 0 μM) | concentration of the cAMP ([1]; 2-pentanone 30 μM) | concentration of the cAMP ([1]; 2-pentanone 100 μM) | concentration of the cAMP ([1]; 2-pentanone 300 μM) | concentration of the cAMP ([1]; 2-pentanone 1000 μM) | concentration of the cAMP ([1]; 2-pentanone 3000 μM) | concentration of the cAMP ([2]; cyclohexanone 0 μM) | concentration of the cAMP ([2]; cyclohexanone 30 μM) | concentration of the cAMP ([2]; cyclohexanone 100 μM) | concentration of the cAMP ([2]; cyclohexanone 1000 μM) | concentration of the cAMP ([2]; cyclohexanone 3000 μM) | concentration of the cAMP ([3]; vanillic acid 0 μM) | concentration of the cAMP ([3]; vanillic acid 0.3 μM) | concentration of the cAMP ([3]; vanillic acid 1 μM) | concentration of the cAMP ([3]; vanillic acid 3 μM) | concentration of the cAMP ([3]; vanillic acid 10 μM) | concentration of the cAMP ([3]; vanillic acid 30 μM) | also measured
B1 | 0.0215 | 0.0170 | 0.0170 | 0.0280 | 0.0400 | 0.0444 |  |  |  |  |  |  |  |  |  |  |  | 
B2 |  |  |  |  |  |  | 0.0282 | 0.0280 | 0.0250 | 0.0290 | 0.0916 |  |  |  |  |  |  | concentration of the cAMP compared with Rho-myc-olfr15 (in words) ([2]; cyclohexanone, Table 7): much greater
B3 |  |  |  |  |  |  |  |  |  |  |  | 0.075 | 0.166 | 0.160 | 0.192 | 0.162 | 0.187 | concentration of the cAMP compared with Rho-myc-Olfr609 (in words) ([3]; vanillic acid, Table 8): much greater
B4 | 0.0187 | 0.0220 | 0.0270 | 0.0520 | 0.0775 | 0.0916 |  |  |  |  |  |  |  |  |  |  |  | concentration of the cAMP compared with Rho-myc-Olfr168 (in words) ([1]; 2-pentanone, Table 6): much greater
B5 |  |  |  |  |  |  |  |  |  |  |  | 0.014 | 0.070 | 0.076 | 0.127 | 0.067 | 0.071 | 
B6 |  |  |  |  |  |  | 0.0173 | 0.0180 | 0.0210 | 0.0280 | 0.0444 |  |  |  |  |  |  | 
